# From publication doi:10.1101/2022.11.08.515567
# What was measured:
# Assay in all cases: SEC
# [1] = target: S2P-1208.H8 (ancestral Hu-1) (SARS CoV-2 (ancestral Hu-1 isolate)) (UniProt P0DTC2)
# [2] = target: S2P.OmiBA1-FHA (SARS CoV-2 (Omicron BA.1) | bacteriophage T4)
# [3] = target: S2P.OmiBA.4/5-1208.H8 (SARS CoV-2 (Omicron BA.4/5))
# [4] = target: S2P.OmiBA1-1208.H8 (SARS CoV-2 (Omicron BA.1))
substance,measurement,setting,value
S2P-1208.H8 (ancestral Hu-1) (from UniProt P0DTC2 16-1208) (domain or fragment),stoichiometry N,[1],2
S2P.OmiBA1-FHA (domain or fragment),stoichiometry N,[2],3
S2P.OmiBA.4/5-1208.H8 (domain or fragment),stoichiometry N,[3],3
S2P.OmiBA1-1208.H8 (domain or fragment),percent dissociated to dimer after a freeze-thaw cycle,[4],15%
same,stoichiometry N,[4],3
